As usually defined, the IC50 is the concentration needed to halve the response being measured. The low end stands for higher potency, the high end for lower potency.

B1: B7 antigen (B7-1) stably expressed on CHO cells (ligand, human, UniProt P33681 35-288, looked up)
chain: VIHVTKEVKEVATLSCGHNVSVEELAQTRIYWQKEKKMVLTMMSGDMNIWPEYKNRTIFDITNNLSIVILALRPSDEGTYECVVLKYEKDAFKREHLAEVTLSVKADFPTPSISDFEIPTSNIRRIICSTSGGFPEPHLSWLENGEELNAINTTVSQDPETELYAVSSKLDFNMTTNHSFMCLIKYGHLRVNQTFNWNTTKQEHFPDNLLPSWAITLISVNGIFVICCLTYCFAPRCRERRRNERLRRESVRPV
notes: whole, on cells; also called B7/BB-1; CD80

Test [1] addresses B7 antigen on lymphoblastoid cell line (PM LCL) (human) (UniProt P33681). Description: cell-based or functional assay.
The target in test [2] is B7Ig fusion protein (human) (UniProt P33681). The test can be described thus: solid phase competition for binding of 125I-B7Ig (4 nM) to immobilized CTLA4Ig.
Test [3] concerns the target T1, CTLA4Ig fusion protein (human, UniProt P01857-1 99-330 = IgG part).
T1 construct: domain: hinge, CH2 and CH3 regions; also called wild-type CTLA4Ig; human CTLA4Ig
The test can be described thus: immunoprecipitation from 125I surface-labeled B7+ CHO extract, SDS-PAGE.
Experimental: Immunoprecipitation Analysis and SDS PAGE. Cells were surface-labeled with ¹²⁵I and subjected to immunoprecipitation analysis. […] SDS-PAGE chromatography was performed on linear acrylamide gradients gels with stacking gels of 5% acrylamide. Gels were stained with Coomassie Blue, destained, and photographed or dried and exposed to X ray film (Kodak XAR-5).
B7⁺ CHO and PM LCL cells were surface-labeled with ¹²⁵I, and extracted with a non-ionic detergent solution as described above. […] Washed immunoprecipitates were then analyzed by SDS-PAGE (10-20% acrylamide gradient) under reducing conditions. The gel was then dried and subjected to autoradiography.

Test [4] has as its target B1. The test can be described thus: indirect cell binding enzyme immunoassay on ethanol-fixed B7-1+ CHO cells.
Experimental: Round bottom tissue culture treated 96 well microtiter plates (Corning, Corning, N.Y.) were seeded with B7-1 positive CHO cells at 10³ cells/well.

In the case of “murine monoclonal antibody BB-1 (anti-B7 antigen)”, the inhibition of Th-induced IgM production by allogeneic CD19+ B cells (ELISA) in test [1] was found to be 65%. In test [2], this molecule gave an IC50 of 22 nM.
On to B1, for which the binding result in test [3] is “binds”.

B2: CTLA4/CD28Ig hybrid fusion protein HS6 (Fc fusion, human)
chain: AMHVAQPAVVLASSRGIASFVCEYSYNLFSREVRVTVLRQADSQVTEVCAATYMMGNELTFLDDSICTGTSSGNQVNLTIQGLRAMDTGLYICKVELMYPPPYYLGIGNGTQIYVIDPEPCPD
notes: range 25-32; not shown: hinge and constant regions of human IgG1, hinge cysteines mutated; junction printed DQE
Take B2: the binding result in test [4] is on record as “binds”.

B3: CTLA4/CD28Ig hybrid fusion protein HS2 (Fc fusion, human)
chain: AMHVAQPAVVLASSRGIASFVCKYSYNLFSREFRASLHKGLDSAVEVCVVYGNYSQQLQVYSKTGFNCDGKLGNESVTFYLQNLYVNQTDIYFCKIELMYPPPYYLGIGNGTQIYVIDPEPCPD
notes: range 23-96; not shown: hinge and constant regions of human IgG1, hinge cysteines mutated; junction printed DQE
Consider B3, for which the binding result in test [4] is given as “binds”.

The values are drawn from patent US20050169919A1 (published 2005).
